Publication PMC4198461

Biological target: T1, TRPV2, Q9WUD2
T1 chain: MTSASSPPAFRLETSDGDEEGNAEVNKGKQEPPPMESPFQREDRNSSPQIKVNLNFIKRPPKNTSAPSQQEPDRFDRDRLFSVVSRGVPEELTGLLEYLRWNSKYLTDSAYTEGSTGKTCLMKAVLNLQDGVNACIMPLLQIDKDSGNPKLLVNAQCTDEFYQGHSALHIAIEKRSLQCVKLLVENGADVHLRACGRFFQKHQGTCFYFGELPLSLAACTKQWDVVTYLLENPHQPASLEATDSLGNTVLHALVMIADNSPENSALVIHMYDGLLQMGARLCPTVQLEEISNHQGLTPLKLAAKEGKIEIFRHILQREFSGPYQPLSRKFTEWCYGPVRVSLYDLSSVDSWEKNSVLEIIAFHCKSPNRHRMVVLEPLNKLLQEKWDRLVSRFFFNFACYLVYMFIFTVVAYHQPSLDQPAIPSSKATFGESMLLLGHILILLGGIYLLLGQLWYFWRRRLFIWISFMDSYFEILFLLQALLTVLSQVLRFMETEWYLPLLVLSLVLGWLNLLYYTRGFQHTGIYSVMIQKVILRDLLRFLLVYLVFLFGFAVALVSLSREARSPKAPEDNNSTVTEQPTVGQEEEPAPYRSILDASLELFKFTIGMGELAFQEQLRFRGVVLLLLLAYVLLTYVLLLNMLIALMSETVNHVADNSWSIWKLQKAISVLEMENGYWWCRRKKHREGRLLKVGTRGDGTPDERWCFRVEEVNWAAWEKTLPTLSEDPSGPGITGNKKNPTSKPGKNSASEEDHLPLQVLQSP
Assay: SEC + native gel or EMSA + other: negative-stain EM
Details: remark: other sources report otherwise

B1: TRPV2, Q9WUD2 1-761 (natural protein)
chain: T1 chain
B1 was tested, and the stoichiometry N was 4.
